This assay has as its target microtubules assembled from highly purified (MAP-free) porcine brain tubulin (porcine) (UniProt P02550). The experiment in a line: co-sedimentation; MTs assembled from 25 µM PC-purified (MAP-free) porcine brain tubulin in PEM (100 mM Pipes pH 6.8, 2 mM EGTA, 1 mM MgCl2) with 1 mM GTP, 10% glycerol, 1 mM DTT, 0.5% Triton X-100, 1 h 37°C; 2.5 µM recombinant plectin fragment added for 60 min; 45 000 g 30 min 37°C; supernatant and pellet by SDS-PAGE, Coomassie, densitometry.

For the substance “plectin fragment P1c(2α3α)-8 (exons 1c(2α3α)-8), untagged (domain or fragment)”, the percent co-sedimented with MTs came out at 52%.
Regarding “plectin fragment P2(2α3α)-8 (exons 2(2α3α)-8), untagged (domain or fragment)”, the percent co-sedimented with MTs turned out to be 36.5%.

The values above are taken from PMC7891324.
